Experimental data reported in PMC6987225, “Eukaryotic transcription factors can track and control their target genes using DNA antennas”.
Substitutions are numbered along the chain they refer to.

How the values were obtained:
Conditions in all cases: protein: recombinant; tags: C-terminal Cys added, labeled with Alexa 488 C5-maleimide; blunt
[1] = target: T1, EngHD (Engrailed homeodomain, DNA-binding domain) (Drosophila melanogaster, UniProt P02836 454-513); test: FCS; minimal difference from N7; FCS, ~1 nM Alexa 488-EngHD with unlabeled dsDNA titrated; ionic strength 50 mM (NaCl) unless stated; buffer, pH and temperature not in the material
T1 sequence: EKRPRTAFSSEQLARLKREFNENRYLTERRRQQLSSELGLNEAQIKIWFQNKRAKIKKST

[2] = target: T1, EngHD (Engrailed homeodomain, …); test: FCS; 50 mM ionic strength; FCS, ~1 nM Alexa 488-EngHD with unlabeled dsDNA titrated; ionic strength 50 mM (NaCl) unless stated; buffer, pH and temperature not in the material
[3] = target: T1, EngHD (Engrailed homeodomain, …); test: FCS; affinity unchanged vs N8; FCS, ~1 nM Alexa 488-EngHD with unlabeled dsDNA titrated; ionic strength 50 mM (NaCl) unless stated; buffer, pH and temperature not in the material
[4] = target: T1, EngHD (Engrailed homeodomain, …); test: FCS; 50 mM ionic strength; FCS, ~1 nM Alexa 488-EngHD with unlabeled dsDNA titrated; ionic strength 50 mM (NaCl) unless stated; buffer, pH and temperature not in the material; remark: listed apart in the source
[5] = target: T1, EngHD (Engrailed homeodomain, …); test: as above; remark: listed apart in the source
[6] = target: T1, EngHD (Engrailed homeodomain, …); test: as above; remark: listed apart in the source
[7] = target: T1, EngHD (Engrailed homeodomain, …); test: as above; remark: listed apart in the source
[8] = target: T1, EngHD (Engrailed homeodomain, …); test: as above; remark: listed apart in the source

B1: 75 bp CGTGTT shuffled (m5) (dsDNA)
DNA 1: GCTCGACATAGATCTGACTGACATGCTATCAGTCTACGTGTTCAGTCTAGCTGTGCATCGATCTATACATCTAGC
DNA 2: GCTAGATGTATAGATCGATGCACAGCTAGACTGAACACGTAGACTGATAGCATGTCAGTCAGATCTATGTCGAGC
binding result [1]: binds

B2: 75 bp TAATTG high G/C (m3) (dsDNA)
DNA 1: CCCCCTCCCACCCCTCCACCCCCTCCCCTCCCCCCCTAATTGCCCTCCCCTCCCCCACCCCCTCCCCCACCCCCT
DNA 2: AGGGGGTGGGGGAGGGGGTGGGGGAGGGGAGGGCAATTAGGGGGGGAGGGGAGGGGGTGGAGGGGTGGGAGGGGG
Kd [2]: ~700 nM

B3: 150 bp TAATTG half original/half shuffled (m8) (dsDNA)
DNA 1: TACTCATCGATACTCAGTACTCGCGACGCATCGTGTACGCCCGAAATAAATCTGGCCGAAAAGCCATCAATCTATAATTGCAATCTAACTGTGCCTCGGTTTATACCTCCAACTGCAGTACACTGATATGACAGACAGTATGCTCACATA
DNA 2: TATGTGAGCATACTGTCTGTCATATCAGTGTACTGCAGTTGGAGGTATAAACCGAGGCACAGTTAGATTGCAATTATAGATTGATGGCTTTTCGGCCAGATTTATTTCGGGCGTACACGATGCGTCGCGAGTACTGAGTATCGATGAGTA
binding result [3]: binds

B4: 75 bp TAATTG (m2) (dsDNA)
DNA 1: GCCCGAAATAAATCTGGCCGAAAAGCCATCAATCTATAATTGCAATCTAACTGTGCCTCGGTTTATACCTCCAAC
DNA 2: GTTGGAGGTATAAACCGAGGCACAGTTAGATTGCAATTATAGATTGATGGCTTTTCGGCCAGATTTATTTCGGGC
Kd [4]: 7.44 -log10 M

B5: 75 bp GAATTG (dsDNA)
DNA 1: B4 DNA 1 with T37G
DNA 2: B4 DNA 2 with A39C
binding signal [5]: 19 fold lower affinity than TAATTA (N3)

B6: 75 bp CGTGTT (m4) (dsDNA)
DNA 1: B4 DNA 1 with T37C, A38G, A39T, T40G, G42T
DNA 2: B4 DNA 2 with C34A, A36C, T37A, T38C, A39G
binding signal [5]: 22 fold lower affinity than TAATTA (N3)

B7: 75 bp TAATTA (m1) (dsDNA)
DNA 1: B4 DNA 1 with G42A
DNA 2: B4 DNA 2 with C34T
Kd [6]: 8.43 -log10 M

B8: 75 bp TATATA (dsDNA)
DNA 1: B4 DNA 1 with A39T, T40A, G42A
DNA 2: B4 DNA 2 with C34T, A36T, T37A
binding signal [5]: ~10 fold lower affinity than TAATTA (N3)

B9: 75 bp TAATTT (dsDNA)
DNA 1: B4 DNA 1 with G42T
DNA 2: B4 DNA 2 with C34A
Kd [4]: 7.79 -log10 M

B10: 38 bp TAATTG (dsDNA)
DNA 1: AAAAGCCATCAATCTATAATTGCAATCTAACTGTGCCT
DNA 2: AGGCACAGTTAGATTGCAATTATAGATTGATGGCTTTT
Kd [7]: 7.26 -log10 M

B11: 150 bp TAATTG (m6) (dsDNA)
DNA 1: TTCTTAACCAAATTGAATTCTCGCCACCGATCGTGTTCGCCCGAAATAAATCTGGCCGAAAAGCCATCAATCTATAATTGCAATCTAACTGTGCCTCGGTTTATACCTCCAACTGCCGTTCACCGAAAAGGCCGACAGTTTTCCGACAAA
DNA 2: TTTGTCGGAAAACTGTCGGCCTTTTCGGTGAACGGCAGTTGGAGGTATAAACCGAGGCACAGTTAGATTGCAATTATAGATTGATGGCTTTTCGGCCAGATTTATTTCGGGCGAACACGATCGGTGGCGAGAATTCAATTTGGTTAAGAA
binding signal [8]: ~2 fold higher affinity than 75 bp TAATTG (N2)

B12: 150 bp TAATTG shuffled (m7) (dsDNA)
DNA 1: TACTCATCGATACTCAGTACTCGCGACGCATCGTGTACGCGCGACATACATCTCACTGATACGCGATCACTCTATAATTGCACTCTATCTGTGCATCGCTCTATAGCTCTATCTGCAGTACACTGATATGACAGACAGTATGCTCACATA
DNA 2: TATGTGAGCATACTGTCTGTCATATCAGTGTACTGCAGATAGAGCTATAGAGCGATGCACAGATAGAGTGCAATTATAGAGTGATCGCGTATCAGTGAGATGTATGTCGCGCGTACACGATGCGTCGCGAGTACTGAGTATCGATGAGTA
binding result [3]: binds
